# IntAct's records for PubMed 12591280
# B1: Actin nucleation-promoting factor WAS (Homo sapiens), P42768 (parent)
# chain: MSGGPMGGRPGGRGAPAVQQNIPSTLLQDHENQRLFEMLGRKCLTLATAVVQLYLALPPGAEHWTKEHCGAVCFVKDNPQKSYFIRLYGLQAGRLLWEQELYSQLVYSTPTPFFHTFAGDDCQAGLNFADEDEAQAFRALVQEKIQKRNQRQSGDRRQLPPPPTPANEERRGGLPPLPLHPGGDQGGPPVGPLSLGLATVDIQNPDITSSRYRGLPAPGPSPADKKRSGKKKISKADIGAPSGFKHVSHVGWDPQNGFDVNNLDPDLRSLFSRAGISEAQLTDAETSKLIYDFIEDQGGLEAVRQEMRRQEPLPPPPPPSRGGNQLPRPPIVGGNKGRSGPLPPVPLGIAPPPPTPRGPPPPGRGGPPPPPPPATGRSGPLPPPPPGAGGPPMPPPPPPPPPPPSSGNGPAPPPLPPALVPAGGLAPGGGRGALLDQIRQGIQLNKTPGAPESSALQPPPQSSEGLVGALMHVMQKRSRAIHSSDEGEDQAGDEDEDDEWDD
# Tests used:
# [1] = variants of: B1; details: with wipf1_human WIPF1, O43516
# Sequence of wipf1_human WIPF1, O43516 (O43516 whole entry): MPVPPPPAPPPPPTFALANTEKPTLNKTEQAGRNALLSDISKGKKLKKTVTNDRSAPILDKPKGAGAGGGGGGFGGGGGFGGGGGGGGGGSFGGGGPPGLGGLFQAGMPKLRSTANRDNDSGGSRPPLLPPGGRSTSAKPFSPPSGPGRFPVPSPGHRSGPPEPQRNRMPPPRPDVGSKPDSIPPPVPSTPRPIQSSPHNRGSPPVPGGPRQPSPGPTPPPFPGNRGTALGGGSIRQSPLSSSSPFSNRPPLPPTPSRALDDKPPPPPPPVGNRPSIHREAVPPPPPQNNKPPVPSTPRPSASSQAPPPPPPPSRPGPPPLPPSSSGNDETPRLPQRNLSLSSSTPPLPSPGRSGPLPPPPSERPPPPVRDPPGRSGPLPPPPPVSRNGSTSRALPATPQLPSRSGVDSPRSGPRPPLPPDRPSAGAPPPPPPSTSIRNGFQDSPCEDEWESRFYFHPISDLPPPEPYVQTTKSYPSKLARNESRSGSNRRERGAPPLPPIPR
# [2] = variants of: B1; details: with wipf1_human WIPF1, O43516; remark: listed apart in the source
Variant,effect of a mutation on the interaction [1],effect of a mutation on the interaction [2]
A134T,disrupting interaction strength,–
R138A,with no effect,increasing interaction strength

# Next, values leading:
effect of a mutation on the interaction [1],effect of a mutation on the interaction [2],Variant
disrupting interaction strength,decreasing interaction strength,R138P
with no effect,increasing interaction strength,R138E
